Patent US20210238260
Substitutions are numbered along the chain they refer to. Numbers in names are those of the source.

B1: FIXa D104N/K106S/N260S/R318Y/R338E/R403E/E410N (protein)
chain 1: YNSGKLEEFVQGNLERECMEEKCSFEEAREVFENTERTTEFWKQYVDGDQCESNPCLNGGSCKDDINSYECWCPFGFEGKNCELDVTCNIKNGRCEQFCKNSANNSVVCSCTEGYRLAENQKSCEPAVPFPCGRVSVSQTSKLTR
chain 2: VVGGEDAKPGQFPWQVVLNGKVDAFCGGSIVNEKWIVTAAHCVETGVKITVVAGEHNIEETEHTEQKRNVIRIIPHHNYSAAINKYNHDIALLELDEPLVLNSYVTPICIADKEYTNIFLKFGSGYVSGWGRVFHKGYSALVLQYLRVPLVDRATCLESTKFTIYNNMFCAGFHEGGRDSCQGDSGGPHVTEVEGTSFLTGIISWGEECAMKGKYGIYTKVSEYVNWIKNKTKLT
B2: FIXa K247N/N249S/R318Y/R403E/E410N (protein)
chain 1: B1 chain 1 with N104D, S106K
chain 2: B1 chain 2 with K67N, N69S, S80N, E158R
B3: FIXa R318Y/R338E/Y345A/R403E/E410N (protein)
chain 1: B1 chain 1 with N104D, S106K
chain 2: B1 chain 2 with S80N, Y165A
B4: FIXa Y155F/K247N/N249S/R318Y/R403E/E410N (protein)
chain 1: B1 chain 1 with N104D, S106K
chain 2: B1 chain 2 with K67N, N69S, S80N, E158R
B5: FIXa K247N/N249S/R318Y/R338E/R403E (protein)
chain 1: B1 chain 1 with N104D, S106K
chain 2: B1 chain 2 with K67N, N69S, S80N, N230E
B6: FIXa Y155F/N260S/R318Y/R338E/R403E/E410N (protein)
chain 1: B1 chain 1 with N104D, S106K
chain 2: B1 chain 2
B7: FIXa D104N/K106S/K247N/N249S/N260S (protein)
chain 1: B1 chain 1
chain 2: B1 chain 2 with K67N, N69S, Y138R, E158R, E223R, N230E
B8: FIXa K247N/N249S/N260S/R318Y/R338E/R403E/E410N (protein)
chain 1: B1 chain 1 with N104D, S106K
chain 2: B1 chain 2 with K67N, N69S
B9: FIXa-A103N/N105S/R318Y/R338E/R403E/E410N (mature FIX numbering) (protein)
chain 1: B1 chain 1 with A103N, N104D, N105S, S106K
chain 2: B1 chain 2 with S80N
B10: FIXa-D104N/K106S/R318Y/R338E/R403E/E410N (mature FIX numbering) (protein)
chain 1: B1 chain 1
chain 2: B1 chain 2 with S80N
B11: FIXa Y155F/R318Y/T343R/R403E/E410N (protein)
chain 1: B1 chain 1 with N104D, S106K
chain 2: B1 chain 2 with S80N, E158R, T163R
B12: FIXa R318Y/R338E/T343R/E410N (protein)
chain 1: B1 chain 1 with N104D, S106K
chain 2: B1 chain 2 with S80N, T163R, E223R
B13: FIXa R338E/T343R/R403E/E410N (protein)
chain 1: B1 chain 1 with N104D, S106K
chain 2: B1 chain 2 with S80N, Y138R, T163R
B14: FIXa Y155F/R318Y/R338E/T343R/E410N (protein)
chain 1: B1 chain 1 with N104D, S106K
chain 2: B1 chain 2 with S80N, T163R, E223R
B15: FIXa Y155F/R318Y/R338E/T343R/R403E (protein)
chain 1: B1 chain 1 with N104D, S106K
chain 2: B1 chain 2 with S80N, T163R, N230E
B16: FIXa D104N/K106S/R318Y/R338E/T343R/R403E/E410N (protein)
chain 1: B1 chain 1
chain 2: B1 chain 2 with S80N, T163R
B17: FIXa-K228N/R338E/R403E (mature FIX numbering) (protein)
chain 1: B1 chain 1 with N104D, S106K
chain 2: B1 chain 2 with K48N, S80N, Y138R, N230E
B18: FIXa-R338E/T343R/E410N (protein)
chain 1: B1 chain 1 with N104D, S106K
chain 2: B1 chain 2 with S80N, Y138R, T163R, E223R
B19: FIXa-R318Y/R403E/E410N (mature FIX numbering) (protein)
chain 1: B1 chain 1 with N104D, S106K
chain 2: B1 chain 2 with S80N, E158R
B20: FIXa-D104N/K106S/R318Y/R338E/E410N (mature FIX numbering) (protein)
chain 1: B1 chain 1
chain 2: B1 chain 2 with S80N, E223R
B21: FIXa R318Y/R338E/N346Y/R403E/E410N (protein)
chain 1: B1 chain 1 with N104D, S106K
chain 2: B1 chain 2 with S80N, N166Y
B22: FIXa-Y155F/R318Y/R338E/E410N (mature FIX numbering) (protein)
chain 1: B1 chain 1 with N104D, S106K
chain 2: B1 chain 2 with S80N, E223R
B23: FIXa-K228N/R318Y/E410N (mature FIX numbering) (protein)
chain 1: B1 chain 1 with N104D, S106K
chain 2: B1 chain 2 with K48N, S80N, E158R, E223R
B24: FIXa-Y155F/R318Y/R338E/R403E/E410N (mature FIX numbering) (protein)
chain 1: B1 chain 1 with N104D, S106K
chain 2: B1 chain 2 with S80N
B25: FIXa R318Y/R338E/T343R/R403E/E410N (protein)
chain 1: B1 chain 1 with N104D, S106K
chain 2: B1 chain 2 with S80N, T163R
B26: FIXa Y155F/R318Y/R338E/T343R/R403E/E410N (protein)
chain 1: B1 chain 1 with N104D, S106K
chain 2: B1 chain 2 with S80N, T163R
B27: FIXa Y155F/K247N/N249S/N260S/R318Y/R338E/R403E/E410N (protein)
chain 1: B1 chain 1 with N104D, S106K
chain 2: B1 chain 2 with K67N, N69S
B28: FIXa D104N/K106S/Y155F/K247N/N249S/N260S (protein)
chain 1: B1 chain 1
chain 2: B1 chain 2 with K67N, N69S, Y138R, E158R, E223R, N230E
B29: FIXa R318Y/R338E/T343R/R403E (protein)
chain 1: B1 chain 1 with N104D, S106K
chain 2: B1 chain 2 with S80N, T163R, N230E
B30: FIXa Y155F/K247N/N249S/R338E/R403E/E410N (protein)
chain 1: B1 chain 1 with N104D, S106K
chain 2: B1 chain 2 with K67N, N69S, S80N, Y138R
B31: FIXa R318Y/R338E/T343R/N346Y/R403E/E410N (protein)
chain 1: B1 chain 1 with N104D, S106K
chain 2: B1 chain 2 with S80N, T163R, N166Y
B32: FIXa Y155F/K247N/N249S/R318Y/R338E/R403E (protein)
chain 1: B1 chain 1 with N104D, S106K
chain 2: B1 chain 2 with K67N, N69S, S80N, N230E
B33: FIXa R318Y/R338E/T343R/N346D/R403E/E410N (protein)
chain 1: B1 chain 1 with N104D, S106K
chain 2: B1 chain 2 with S80N, T163R, N166D
B34: FIXa Y155F/R318Y/R338E/N346D/R403E/E410N (protein)
chain 1: B1 chain 1 with N104D, S106K
chain 2: B1 chain 2 with S80N, N166D
B35: FIXa-R318Y/R338E/R403E/E410N (mature FIX numbering) (protein)
chain 1: B1 chain 1 with N104D, S106K
chain 2: B1 chain 2 with S80N
B36: FIXa-R318Y/R338E/E410N (mature FIX numbering) (protein)
chain 1: B1 chain 1 with N104D, S106K
chain 2: B1 chain 2 with S80N, E223R
B37: FIXa K247N/N249S/R338E/R403E/E410N (protein)
chain 1: B1 chain 1 with N104D, S106K
chain 2: B1 chain 2 with K67N, N69S, S80N, Y138R
B38: FIXa Y155F/K247N/N249S/N260S (protein)
chain 1: B1 chain 1 with N104D, S106K
chain 2: B1 chain 2 with K67N, N69S, Y138R, E158R, E223R, N230E

Target: Factor X, P00742
Sequence (P00742 whole entry, looked up): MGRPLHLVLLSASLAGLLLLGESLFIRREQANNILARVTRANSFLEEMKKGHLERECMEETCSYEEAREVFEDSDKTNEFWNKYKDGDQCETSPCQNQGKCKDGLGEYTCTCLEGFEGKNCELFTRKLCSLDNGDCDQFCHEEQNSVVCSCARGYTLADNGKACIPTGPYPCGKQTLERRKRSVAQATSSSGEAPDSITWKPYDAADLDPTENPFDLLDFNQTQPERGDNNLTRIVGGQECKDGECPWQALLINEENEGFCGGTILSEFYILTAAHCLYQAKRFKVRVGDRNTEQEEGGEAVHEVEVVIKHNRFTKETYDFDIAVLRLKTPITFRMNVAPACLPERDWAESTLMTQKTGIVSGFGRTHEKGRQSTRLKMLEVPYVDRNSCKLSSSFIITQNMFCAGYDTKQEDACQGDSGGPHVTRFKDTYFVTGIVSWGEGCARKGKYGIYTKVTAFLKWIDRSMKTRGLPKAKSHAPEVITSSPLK

Row | Protein | % of WT kcat/KM | KM (FX activation by FIXa in Xase complex with FVIIIa, PC/PS vesicles, Ca2+) | kcat/KM | KM
1 | B1 | 190% | 0.0611 µM | 8.8e+07 M⁻¹ s⁻¹ | 
2 | B2 |  | 0.111 µM |  | 
3 | B3 | 180% | 0.0188 µM | 8.3e+07 M⁻¹ s⁻¹ | 
4 | B4 |  | 0.125 µM |  | 
5 | B5 |  | 0.0536 µM |  | 
6 | B6 | 152% | 0.0839 µM | 7e+07 M⁻¹ s⁻¹ | 
7 | B7 | 21% | 0.0612 µM | 9.8e+06 M⁻¹ s⁻¹ | 
8 | B8 | 145% | 0.0474 µM | 6.7e+07 M⁻¹ s⁻¹ | 
9 | B9 | 327% |  | 1.5e+08 M⁻¹ s⁻¹ | 
10 | B10 | 377% |  | 1.7e+08 M⁻¹ s⁻¹ | 
11 | B11 |  | 0.034 µM |  | 
12 | B12 |  | 0.0164 µM |  | 
13 | B13 |  | 0.0347 µM |  | 
14 | B14 |  | 0.0256 µM |  | 
15 | B15 |  | 0.034 µM |  | 
16 | B16 | 487% | 0.0266 µM | 2.2e+08 M⁻¹ s⁻¹ | 
17 | B17 | 108% |  | 4.8e+07 M⁻¹ s⁻¹ | 
18 | B18 |  |  |  | 0.0355 µM
19 | B19 | 59% |  | 2.7e+07 M⁻¹ s⁻¹ | 

Row | Protein | % of WT kcat/KM | KM (FX activation by FIXa in Xase complex with FVIIIa, PC/PS vesicles, Ca2+) | kcat/KM | KM
20 | B20 | 581% |  | 2.6e+08 M⁻¹ s⁻¹ | 
21 | B21 | 270% | 0.0281 µM | 1.2e+08 M⁻¹ s⁻¹ | 
22 | B22 | 835% |  | 3.7e+08 M⁻¹ s⁻¹ | 
23 | B23 | 272% |  | 1.2e+08 M⁻¹ s⁻¹ | 
24 | B24 | 418% |  | 1.9e+08 M⁻¹ s⁻¹ | 
25 | B25 | 907% | 0.0247 µM | 4.2e+08 M⁻¹ s⁻¹ | 
26 | B26 | 640% | 0.0272 µM | 3e+08 M⁻¹ s⁻¹ | 
27 | B27 | 124% | 0.0954 µM | 5.7e+07 M⁻¹ s⁻¹ | 
28 | B28 | 18% | 0.0685 µM | 8.2e+06 M⁻¹ s⁻¹ | 
29 | B29 |  | 0.0443 µM |  | 
30 | B30 |  | 0.0487 µM |  | 
31 | B31 | 663% | 0.0158 µM | 3.1e+08 M⁻¹ s⁻¹ | 
32 | B32 |  | 0.0673 µM |  | 
33 | B33 | 177% | 0.067 µM | 8.2e+07 M⁻¹ s⁻¹ | 
34 | B34 | 135% | 0.1 µM | 6.2e+07 M⁻¹ s⁻¹ | 
35 | B35 | 262% |  | 1.2e+08 M⁻¹ s⁻¹ | 
36 | B36 | 770% |  | 3.4e+08 M⁻¹ s⁻¹ | 
37 | B37 |  | 0.025 µM |  | 
38 | B38 | 42% | 0.0965 µM | 1.9e+07 M⁻¹ s⁻¹ | 
